Results as given in US20230053258.

Target: recombinant human insulin (UniProt P01308)
Sequence (P01308 whole entry, looked up): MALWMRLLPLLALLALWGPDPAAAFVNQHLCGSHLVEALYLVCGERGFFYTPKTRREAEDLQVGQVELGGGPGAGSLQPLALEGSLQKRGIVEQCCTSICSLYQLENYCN

recombinant human wild type insulin degrading enzyme (WT rhIDE)
insulin degradation (residual insulin by ELISA): ~60% degradation following 2 hours at 37 °C

recombinant human IDE, inactive mutant E111Q
insulin degradation (residual insulin by ELISA): the mutated IDE degraded only 15% of the insulin under the same conditions
